In patent US20150174202A1, “Methods and Compositions for Modulating Beta Cell Proliferation” (The Board of Trustees of the Leland Stanford Junior …, priority 2011, published 2015):
“Also recorded” adds a separate entry of the source.

B1: prolactin (protein, UniProt P01236 29-227, looked up)
Prolactin: LPICPGGAARCQVTLRDLFDRAVVLSHYIHNLSSEMFSEFDKRYTHGRGFITKAINSCHTSSLATPEDKEQAQQMNQKDFLSLIVSILRSWNEPLYHLVTEVRGMQEAPEAILSKAVEIEEQTKRLLEGMELIVSQVHPETKENEIYPVWSGLPSLQMADEESRLSAYYNLLHCLRRDSHKIDNYLKLLKCRIIHNNNC
notes: mitogen capable of promoting β-cell proliferation
B2: Wnt3a: purified Wnt3a protein (protein, UniProt P56704 19-352, looked up)
Protein Wnt-3a: SYPIWWSLAVGPQYSSLGSQPILCASIPGLVPKQLRFCRNYVEIMPSVAEGIKIGIQECQHQFRGRRWNCTTVHDSLAIFGPVLDKATRESAFVHAIASAGVAFAVTRSCAEGTAAICGCSSRHQGSPGKGWKWGGCSEDIEFGGMVSREFADARENRPDARSAMNRHNNEAGRQAIASHMHLKCKCHGLSGSCEVKTCWWSQPDFRAIGDFLKDKYDSASEMVVEKHRESRGWVETLRPRYTYFKVPTERDLVYYEASPNFCEPNPETGSFGTRDRTCNVSSHGIDGCDLLCCGRGHNARAERRREKCRCVFHWCCYVSCQECTRVYDVHTCK

Columns and labels:
Format in all cases: cell-based
[1] = system: Ezh2; assay: Ezh2/Ezh1 expression in cultured mouse islets (real-time RT-PCR, western blot); conditions: juvenile mouse islets exposed to insulin or prolactin, 2 days
Method: Mouse pancreatic islets were purified as described in Chen et al. (2009) Genes Dev. 23, 975-985 and used immediately for assays described in the text. To study Ezh2 induction in cultured islets exposed to mitogens, freshly isolated islets from 2-3-week old, and 7-12-month old C57BL/6 mice were recovered and equilibrated overnight at 37° C., 5% CO2 in RPMI-1640 medium supplemented with 0.5% fetal bovine serum (FBS), 0.2% bovine albumin (BSA) and 2% penicillin/streptomycin. […] Immunostaining of BrdU and insulin was performed on processed islets, and β-cell proliferation rate was determined by quantifying percentage of insulin+ cells with BrdU+. […] RNA concentration was measured with a RiboGreen RNA quantification assay (Invitrogen). One-step quantitative RT-PCR was performed and analysed using an ABI Prism 7300 detection system (Applied Biosystems) with TaqMan one-step RTPCR Master Mix Reagents and appropriate amounts (10-100 ng) of islet total RNA as the template. We calculated the ratio of mRNA for the gene of interest to the amount of internal control mRNA of peptidylprolyl isomerase A (cyclophilin A, PPIA), and then normalized the ratio for each gene to its median. […]

[2] = system: PDGFRA; assay: Pdgfra expression in cultured adult mouse islets exposed to Wnt3a or R-Spondin; conditions: isolated adult mouse islets (4-5 months of age) in culture
Source text: In diverse tissues, including the pancreas, Wnt signaling activates expression of Axin2, a negative regulator of the pathway. […] This spatially and temporally restricted expression pattern is reminiscent of declining Pdgfra, Pdgfrab, and Ezh2 levels and β-cell proliferation in animals (FIG. 22B-D, Chen et al 2009, 2011). Likewise, in mice harboring a ‘Top-Gal’ synthetic reporter gene of Wnt signaling activity, β-galactosidase reporter expression declines in islet β-cells with age (FIG. 22E-G). Thus, changes in Wnt signaling underlie age-dependent reductions of Pdgfr expression and β-cell PDGF signaling competence in β-cells. Consistent with this, culture of isolated adult mouse islets (4-5 months of age) with purified Wnt3a or the Wnt agonist R-Spondin increased Pdgfra mRNA expression. As described above, Pdgfra signaling induced Ezh2 expression in islets. To assess the function of Pdgfra induced by R-Spondin, R-Spondin was added to adult mouse islets, followed by addition of purified PDGF-AA (100 ng/ml), and Ezh2 mRNA levels were then measured.

[3] = system: PDGFRα and PDGFRβ; assay: PDGFR mRNA in cultured adult human islets exposed to Wnt3a or R-Spondin
[4] = adult human islets (mean age >40 years), exposed for two days

Molecule | Ezh2 mRNA levels after mitogen exposure [1] | Pdgfra mRNA expression [2] | mRNA levels encoding PDGFRα [3, 4] | mRNA levels encoding PDGFRβ [3, 4] | dose dependence of induction of PDGFRA and PDGFRB mRNA ([3]; cultured adult human islets)
B1 | did not detectably alter; also recorded: did not induce |  |  |  | 
B2 |  | increased | increased | increased | depends on the dose
